Results: publication PMC6472344, “Self-organization of Plk4 regulates symmetry breaking in centriole duplication” (Nature Communications, 2019)
Residue numbers refer to the chain shown, from its start. Numbers in names are those of the source.

B1: Plk4 (Kinase + L1)-His6, kinase-dead (D154A), after GST-tag cleavage (domain or fragment, human, UniProt O00444 1-585, looked up)
chain: MATCIGEKIEDFKVGNLLGKGSFAGVYRAESIHTGLEVAIKMIDKKAMYKAGMVQRVQNEVKIHCQLKHPSILELYNYFEDSNYVYLVLEMCHNGEMNRYLKNRVKPFSENEARHFMHQIITGMLYLHSHGILHRDLTLSNLLLTRNMNIKIAAFGLATQLKMPHEKHYTLCGTPNYISPEIATRSAHGLESDVWSLGCMFYTLLIGRPPFDTDTVKNTLNKVVLADYEMPSFLSIEAKDLIHQLLRRNPADRLSLSSVLDHPFMSRNSSTKSKDLGTVEDSIDSGHATISTAITASSSTSISGSLFDKRRLLIGQPLPNKMTVFPKNKSSTDFSSSGDGNSFYTQWGNQETSNSGRGRVIQDAEERPHSRYLRRAYSSDRSGTSNSQSQAKTYTMERCHSAEMLSVSKRSGGGENEERYSPTDNNANIFNFFKEKTSSSSGSFERPDNNQALSNHLCPGKTPFPFADPTPQTETVQQWFGNLQINAHLRKTTEYDSISPNRDFQGHPDLQKDTSKNAWTDTKVKKNSDASDNAHSVKQQNTMKYMTALHSKPEIIQQECVFGSDPLSEQSKTRGMEPPWGYQNR
notes: human Polo-like kinase 4 (Plk4), kinase domain and Linker 1, residues 1-585, kinase-dead; also called KD mutant; KD; source: E. coli BL21 gold (DE3), purified (glutathione sepharose, Ni-agarose); GST cut off with PreScission protease; not shown: GST, N-terminal, cleaved; His6, C-terminal, kept
B2: GST-Plk4 (Kinase + L1)-His6, wild type, dephosphorylated with lambda phosphatase (domain or fragment, human, UniProt O00444 1-585, looked up)
chain: B1 chain with A154D
notes: human Polo-like kinase 4 (Plk4), kinase domain and Linker 1, residues 1-585; The same construct as m5 after removal of its autophosphorylation by λPP; also called λPP-treated WT Plk4 fragments; source: E. coli BL21 gold (DE3), purified (glutathione sepharose, eluted with glutathione; Ni-agarose); incubated with lambda phosphatase; not shown: GST, N-terminal, kept; His6, C-terminal, kept
B3: GST-Plk4 (Kinase + L1)-His6, kinase-dead (D154A) (domain or fragment, human, UniProt O00444 1-585, looked up)
chain: B1 chain
notes: human Polo-like kinase 4 (Plk4), kinase domain and Linker 1, residues 1-585, kinase-dead; also called KD; source: E. coli BL21 gold (DE3), purified (glutathione sepharose, eluted with glutathione; Ni-agarose); not shown: GST, N-terminal, kept; His6, C-terminal, kept

Tests used:
[1] = target: the molecule itself; assay: co-sedimentation; spin-down assay: 500 nM GST-Plk4(Kinase + L1)-His6 incubated at 30 °C for 1 h in kinase buffer (20 mM Tris pH 7.5, 300 or 500 mM NaCl, 30 μM ATP, 5 mM MgCl2, 1 mM β-mercaptoethanol), GST cut off with PreScission protease at 4 °C overnight, centrifuged at 21,500 x g for 10 min; supernatant and pellet by SDS-PAGE and CBB staining
[2] = target: the molecule itself; assay: Proteostat aggregation assay (dye fluorescence); 300 nM GST-Plk4 (Kinase + L1)-His6 in 20 mM Tris pH 7.5, 300 mM NaCl, 1 mM β-mercaptoethanol, 0.1 mM MnCl2, 37 °C for 1 h with or without lambda phosphatase; fluorescence normalised to the WT

Protein | binding result [1] | binding result [2]
B1 | binds | 
B2 |  | binds
B3 |  | binds
